Residue numbers refer to the chain shown, from its start.
What was measured:
[1] = system: T1, BbsI P442A (subunit B variant) P442A (subunit B) (Brevibacillus laterosporus); experiment: cleavage_in_vitro; conditions: NEB4 buffer, relative activity 1; FI>=120 in NEB1 (1/4), >=32 in NEB2 (1/16), >=2 in NEB3 (1/256); reduced star activity
T1 sequence 1: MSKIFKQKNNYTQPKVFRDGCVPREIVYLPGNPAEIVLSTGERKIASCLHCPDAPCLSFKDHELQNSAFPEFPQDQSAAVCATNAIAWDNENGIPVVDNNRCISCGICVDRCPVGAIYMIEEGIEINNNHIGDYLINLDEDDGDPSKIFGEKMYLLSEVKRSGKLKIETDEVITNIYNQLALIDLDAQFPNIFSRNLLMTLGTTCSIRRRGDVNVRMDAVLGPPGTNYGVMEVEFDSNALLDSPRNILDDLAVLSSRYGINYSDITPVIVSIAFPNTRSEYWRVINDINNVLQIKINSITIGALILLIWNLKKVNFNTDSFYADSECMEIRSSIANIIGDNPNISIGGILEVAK
T1 sequence 2: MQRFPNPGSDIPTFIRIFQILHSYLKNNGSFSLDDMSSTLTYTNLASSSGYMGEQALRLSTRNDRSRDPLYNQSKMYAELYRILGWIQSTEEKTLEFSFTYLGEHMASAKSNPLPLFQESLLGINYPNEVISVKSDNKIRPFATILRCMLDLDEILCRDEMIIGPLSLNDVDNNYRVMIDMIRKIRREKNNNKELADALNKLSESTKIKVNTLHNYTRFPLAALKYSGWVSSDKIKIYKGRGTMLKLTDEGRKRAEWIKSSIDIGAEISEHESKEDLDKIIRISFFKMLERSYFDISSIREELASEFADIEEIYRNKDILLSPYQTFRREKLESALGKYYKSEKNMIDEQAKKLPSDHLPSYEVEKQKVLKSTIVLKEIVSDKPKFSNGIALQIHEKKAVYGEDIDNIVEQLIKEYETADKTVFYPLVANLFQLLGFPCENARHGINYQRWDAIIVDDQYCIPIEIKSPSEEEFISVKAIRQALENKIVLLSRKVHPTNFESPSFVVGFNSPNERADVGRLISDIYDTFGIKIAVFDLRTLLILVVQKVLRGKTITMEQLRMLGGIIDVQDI

[2] = system: T2, BbsI wild type (subunits A and B) (Brevibacillus laterosporus); experiment: cleavage_in_vitro; conditions: NEB4 buffer, relative activity 1; FI=32 in NEB1 (1/2), 120 in NEB2 (1), 64 in NEB3 (1/4); substrate sequence not stated
T2 sequence 1: T1 sequence 1
T2 sequence 2: T1 sequence 2 with A442P

DNA substrate containing BbsI recognition site
activity (fidelity index) [1]: > 500
activity (fidelity index) [2]: 64

Source: patent US9988614
